In the series the test system is ATP. Briefly: switch fluorescence ratio, 500 uM ATP over buffer (Cy3 cluster intensity, sum of 5 cycles each) (fold (ratio)); higher = stronger signal-on switching upon ATP binding; sequences stand for … in TCGTCGGCAGCGTCAGATGTGTATAAGAGACAGTTTTTTTTTTTTTTTTTTTTTTTTT…TC. To be noted: aptamer strand: ATP DNA aptamer (quencher-CACCTGGGGGAGTATTGCGGAGGAAGG + anchor), 100 nM annealed; ATP concentration: 500 uM. Summed up: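 Cy3-labelled switching-strand clusters on a modified Illumina MiSeq flow-cell were annealed to 100 nM quencher-labelled ATP aptamer and imaged first in selection buffer, then after 15 min with 500 uM ATP at 22 °C. NaOH stripping and re-annealing separated each of five buffer/ATP cycles, and clusters outside 100-1000 RFU were excluded. The fluorescence ratio sums target-cycle Cy3 intensity over buffer-cycle Cy3 intensity per cluster and averages it per switch-domain sequence.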

± gives the standard deviation of the averaged measurements.
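Note: ATP exposure 15 min at 22 °C before imaging.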

In the case of ATTTGGCTGG, the switch fluorescence ratio came to 0.986 ± 0.015.

As for ATTTGGGCCA, the switch fluorescence ratio came out at 1.02 ± 0.022. As to ATTTGGGGTC, the switch fluorescence ratio came out at 0.9644 ± 0.0056. For the sequence ATTTGGGGTT, the switch fluorescence ratio was 0.997 ± 0.031. Next, ATTTGGTAGG: 1 ± 0.012; ATTTGGTGAG: 0.983 ± 0.03; ATTTGGTGCG: 1.01 ± 0.036.

As for ATTTGGTGTA, the switch fluorescence ratio came out at 0.968 ± 0.0098. For ATTTGTAAGC, the switch fluorescence ratio is 0.9909 ± 0.0068.

As for ATTTGTATGC, the switch fluorescence ratio was found to be 1 ± 0.051.

Take ATTTGTGGAC: the switch fluorescence ratio came out at 0.973 ± 0.037. As for ATTTGTGGGG, the switch fluorescence ratio is 1.01 ± 0.065. Turning to ATTTGTGGTG, the switch fluorescence ratio is 1.01 ± 0.023.

On to ATTTGTGTA, for which the switch fluorescence ratio was determined as 0.992 ± 0.012.

Consider ATTTGTGTGT, for which the switch fluorescence ratio was determined as 0.967 ± 0.036. Consider ATTTGTGTTT, for which the switch fluorescence ratio came out at 0.9931 ± 0.0027.

On to ATTTTAATAT, for which the switch fluorescence ratio turned out to be 0.987 ± 0.03. Regarding ATTTTACACC, the switch fluorescence ratio was determined as 1.07 ± 0.013.

As for ATTTTACGTA, the switch fluorescence ratio came out at 1.143 ± 0.0025. Next, ATTTTACGTG: 1 ± 0.016; ATTTTACTAA: 1.05 ± 0.021; ATTTTAGGCA: 0.996 ± 0.039. Take ATTTTAGGCC: the switch fluorescence ratio turned out to be 1.1 ± 0.06. Regarding ATTTTAGTTA, the switch fluorescence ratio is 1 ± 0.038. For the sequence ATTTTATCAG, the switch fluorescence ratio came to 1.02 ± 0.018. Next, ATTTTATTAC: 1.04 ± 0.028. With ATTTTCACAG, the switch fluorescence ratio was 1.03 ± 0.077. Regarding ATTTTCAGAT, the switch fluorescence ratio was determined as 1.003 ± 0.0045. Next, ATTTTCAGGG: 0.998 ± 0.067; ATTTTCGGTG: 1.01 ± 0.024; ATTTTGTAAT: 1 ± 0.019.

In the case of ATTTTGTGAG, the switch fluorescence ratio was 0.969 ± 0.031. Next, ATTTTGTGTA: 1.005 ± 0.004. For ATTTTGTGTG, the switch fluorescence ratio is 0.989 ± 0.011. Turning to ATTTTGTTCT, the switch fluorescence ratio is 0.993 ± 0.031. For the sequence ATTTTGTTGG, the switch fluorescence ratio was determined as 1.11 ± 0.2. ATTTTTAGT: the switch fluorescence ratio was determined as 1 ± 0.016. With ATTTTTATTC, the switch fluorescence ratio was 0.991 ± 0.03. Take ATTTTTCCCG: the switch fluorescence ratio stood at 1.07 ± 0.059. For ATTTTTCGAT, the switch fluorescence ratio came to 1 ± 0.026. With ATTTTTCTCG, the switch fluorescence ratio turned out to be 0.96 ± 0.041.

For ATTTTTGGG, the switch fluorescence ratio was 1.03 ± 0.035. As for ATTTTTGGTG, the switch fluorescence ratio is 1.06 ± 0.064. Take ATTTTTTGGG: the switch fluorescence ratio came to 0.9597 ± 0.0069.

Turning to ATTTTTTTCT, the switch fluorescence ratio was found to be 1.04 ± 0.04. Regarding ATTTTTTTGT, the switch fluorescence ratio turned out to be 1 ± 0.026. For CAAAAAAAAG, the switch fluorescence ratio turned out to be 1.03 ± 0.023.

In the case of CAAAAAATTA, the switch fluorescence ratio is 1.01 ± 0.031. Regarding CAAAAAGCGT, the switch fluorescence ratio came to 0.9786 ± 0.0056.

Turning to CAAAAAGTTG, the switch fluorescence ratio came to 1.02 ± 0.093. Take CAAAAATTGG: the switch fluorescence ratio is 1 ± 0.041. Consider CAAAAGAGTG, for which the switch fluorescence ratio worked out at 0.999 ± 0.018.

Consider CAAAAGCCTA, for which the switch fluorescence ratio amounted to 0.974 ± 0.053. Consider CAAAAGGGGA, for which the switch fluorescence ratio stood at 0.984 ± 0.04.

Consider CAAAAGTTGT, for which the switch fluorescence ratio amounted to 0.992 ± 0.043. Regarding CAAAATATAT, the switch fluorescence ratio was found to be 1.06 ± 0.042. In the case of CAAAATTGCA it was 1.02 ± 0.016; in that of CAAAATTTGC, 0.9841 ± 0.0061. In the case of CAAACGGGGG it was 0.983 ± 0.042.

With CAAACGGGGT, the switch fluorescence ratio was 1.01 ± 0.024. Next, CAAACTGGCA: 1.05 ± 0.045.

For CAAAGACACA, the switch fluorescence ratio stood at 0.985 ± 0.012.

As to CAAAGGCGGA, the switch fluorescence ratio stood at 0.991 ± 0.014. As to CAAAGGGGCA, the switch fluorescence ratio was 1.046 ± 0.0052. On to CAAAGGGGGA, for which the switch fluorescence ratio amounted to 1 ± 0.033. Turning to CAAAGGGGGG, the switch fluorescence ratio is 1.13 ± 0.38.

CAAAGTAGGG: the switch fluorescence ratio was found to be 0.991 ± 0.032.

Regarding CAAAGTGGTG, the switch fluorescence ratio came out at 0.97 ± 0.053.

Consider CAAATAAATT, for which the switch fluorescence ratio was 0.989 ± 0.029. As for CAAATCGTTG, the switch fluorescence ratio was determined as 0.9786 ± 0.0024. As to CAAATGAAAG, the switch fluorescence ratio amounted to 1.004 ± 0.0058. For the sequence CAAATGATTT, the switch fluorescence ratio turned out to be 0.985 ± 0.021.

Take CAAATGTCAA: the switch fluorescence ratio was determined as 0.987 ± 0.015.

For the sequence CAAATGTTTG, the switch fluorescence ratio is 0.998 ± 0.02. CAAATTAGGG: the switch fluorescence ratio was found to be 0.971 ± 0.036. For the sequence CAAATTGCAG, the switch fluorescence ratio is 0.967 ± 0.026. With CAACACGGCA, the switch fluorescence ratio came out at 1.11 ± 0.026. On to CAACCGCGTA, for which the switch fluorescence ratio was 2.36 ± 0.1. Turning to CAACCGGGAA, the switch fluorescence ratio turned out to be 1.1 ± 0.021. CAACCTGCGA: the switch fluorescence ratio came out at 1.4175 ± 0.0011. Next, CAACGCATTT: 2.36 ± 0.44; CAACGGGCCA: 1.01 ± 0.029; CAACGGGGGG: 0.998 ± 0.029.

On to CAACGTATTT, for which the switch fluorescence ratio was 1.113 ± 0.002. On to CAACTAAGTT, for which the switch fluorescence ratio was determined as 0.988 ± 0.036.

For the sequence CAACTAGTGG, the switch fluorescence ratio is 0.978 ± 0.037. As to CAACTTGGGA, the switch fluorescence ratio was determined as 1.05 ± 0.015. As to CAAGAACGTT, the switch fluorescence ratio was 0.997 ± 0.018.

Regarding CAAGAATGCG, the switch fluorescence ratio was 1 ± 0.034. As to CAAGAATTTG, the switch fluorescence ratio came to 0.9816 ± 0.0097. Next, CAAGAGGGTT: 0.99 ± 0.032; CAAGAGTGTG: 0.98 ± 0.032. Take CAAGATTCTT: the switch fluorescence ratio came to 0.975 ± 0.056.

For CAAGATTGCC, the switch fluorescence ratio turned out to be 1 ± 0.034. Next, CAAGCAAATT: 1.042 ± 0.0039. Consider CAAGCAGGCA, for which the switch fluorescence ratio worked out at 0.9935 ± 0.0067.

In the case of CAAGCATCGC, the switch fluorescence ratio was 0.94962 ± 2.2e-05.

As to CAAGCGGGGG, the switch fluorescence ratio came out at 1.01 ± 0.05. CAAGCTATCA: the switch fluorescence ratio was determined as 1.026 ± 0.002. With CAAGGACATA, the switch fluorescence ratio was 1.07 ± 0.038. Next, CAAGGACGTT: 0.997 ± 0.02; CAAGGACTGG: 0.997 ± 0.032; CAAGGATTTT: 0.9929 ± 0.0012. In the case of CAAGGCTACG, the switch fluorescence ratio was 1.06 ± 0.04. Take CAAGGGAAGT: the switch fluorescence ratio is 0.978 ± 0.017. With CAAGGGATTT, the switch fluorescence ratio worked out at 0.982 ± 0.036. For CAAGGGGCAG, the switch fluorescence ratio is 1.009 ± 0.0057. For the sequence CAAGGGGCGT, the switch fluorescence ratio turned out to be 1.01 ± 0.035.

On to CAAGGGGGCG, for which the switch fluorescence ratio came out at 0.994 ± 0.048. In the case of CAAGGGGGGA, the switch fluorescence ratio turned out to be 1.01 ± 0.023. Next, CAAGGGGGTT: 1.02 ± 0.05; CAAGGGTTGC: 0.987 ± 0.056. For the sequence CAAGGTATTG, the switch fluorescence ratio is 0.987 ± 0.017. On to CAAGGTGGGG, for which the switch fluorescence ratio came out at 1.03 ± 0.0038. Take CAAGGTGTGT: the switch fluorescence ratio stood at 1.01 ± 0.043. With CAAGGTTGAA, the switch fluorescence ratio was 0.9902 ± 0.0079. For CAAGTAATTG, the switch fluorescence ratio was determined as 1.025 ± 0.0088. With CAAGTGAGGG, the switch fluorescence ratio stood at 1.04 ± 0.015. Consider CAAGTGCAGA, for which the switch fluorescence ratio turned out to be 1.052 ± 0.0078.

Take CAAGTTATAA: the switch fluorescence ratio is 0.994 ± 0.023.
